{"source": "paper PMC4499135", "test_in_all_cases": "EMSA", "key": {"TRF2": {"system": "TRF2", "conditions": "20 mM Hepes pH 7.9, 100 mM NaCl, 50 mM KCl, 1 mM MgCl2, 0.1 mM EDTA, 1 mM DTT, 5% glycerol, 0.5 mg/ml BSA, 0.1% NP-40, chicken erythrocyte nucleosome carrier …"}, "TRF2-Myb": {"system": "TRF2-Myb", "conditions": "histone octamer, salt dilution; 20 mM Hepes pH 7.9, 100 mM NaCl, 50 mM KCl, 1 mM MgCl2, 0.1 mM EDTA, 1 mM DTT, 5% glycerol, 0.5 mg/ml BSA, 0.1% NP-40, chicken erythrocyte nucleosome carrier …"}, "TRF1-Myb": {"system": "TRF1-Myb", "conditions": "histone octamer, salt dilution; 20 mM Hepes pH 7.9, 100 mM NaCl, 50 mM KCl, 1 mM MgCl2, 0.1 mM EDTA, 1 mM DTT, 5% glycerol, 0.5 mg/ml BSA, 0.1% NP-40, chicken erythrocyte nucleosome carrier …"}, "TRF2AΔB": {"system": "TRF2AΔB", "conditions": "20 mM Hepes pH 7.9, 100 mM NaCl, 50 mM KCl, 1 mM MgCl2, 0.1 mM EDTA, 1 mM DTT, 5% glycerol, 0.5 mg/ml BSA, 0.1% NP-40, chicken erythrocyte nucleosome carrier …"}, "TRF1": {"system": "TRF1", "conditions": "20 mM Hepes pH 7.9, 100 mM NaCl, 50 mM KCl, 1 mM MgCl2, 0.1 mM EDTA, 1 mM DTT, 5% glycerol, 0.5 mg/ml BSA, 0.1% NP-40, chicken erythrocyte nucleosome carrier …"}, "TRF2ΔB": {"system": "TRF2ΔB", "conditions": "20 mM Hepes pH 7.9, 100 mM NaCl, 50 mM KCl, 1 mM MgCl2, 0.1 mM EDTA, 1 mM DTT, 5% glycerol, 0.5 mg/ml BSA, 0.1% NP-40, chicken erythrocyte nucleosome carrier …"}, "[1]": {"conditions": "histone tails removed by trypsin"}, "[2]": {"conditions": "intact histone octamer, scale: fold higher affinity vs naked Tel2-601-Tel2"}}, "data": [{"substance": "Tel8-L NCP", "values": [{"measurement": "binding signal (fold lower affinity vs naked Tel8-L)", "setting": "TRF2; C1/2 extrapolated, 3 experiments, histone octamer, salt dilution", "value": 100}, {"measurement": "binding signal (fold lower affinity vs naked Tel8-L)", "setting": "TRF2-Myb", "value": 13}, {"measurement": "binding signal (fold lower affinity vs naked Tel8-L)", "setting": "TRF1-Myb", "value": 11}]}, {"substance": "Tel2-601-Tel2 tailless NCP", "values": [{"measurement": "binding signal (fold higher affinity vs intact NCP)", "setting": "TRF2; [1]", "value": 2}, {"measurement": "binding signal (fold lower affinity vs intact NCP)", "setting": "TRF2AΔB; [1]", "value": 3}, {"measurement": "binding signal (fold lower affinity vs intact NCP)", "setting": "TRF1; [1]", "value": 3}, {"measurement": "binding signal (fold lower affinity vs intact NCP)", "setting": "TRF2ΔB; [1]", "value": 2}]}, {"substance": "Tel2-601-Tel2 NCP", "values": [{"measurement": "binding signal", "setting": "TRF2; intact histone octamer, scale: fold lower affinity vs naked Tel2-601-Tel2", "value": 2}, {"measurement": "binding signal", "setting": "TRF2AΔB; [2]", "value": 2}, {"measurement": "binding signal", "setting": "TRF1; [2]", "value": 3}, {"measurement": "binding signal", "setting": "TRF2ΔB; [2]", "value": 3}]}]}
